Experimental data published in PMC11734722.

Experiments:
[1] = target: α-synuclein monomer (not stated (mouse or human recombinant monomer bought)) (UniProt O55042); assay: MST
[2] = target: β-synuclein (β-syn) peptide, 36 to 45 amino acids, all D type; assay: ITC

**Q.** Which Kd [1] does the source give for “α-synuclein monomer (from UniProt O55042 1-140) (natural protein)” here?
**A.** The Kd was 43.8 µM.

**Q.** With “α-synuclein preformed fibrils (α-syn PFF) (from UniProt O55042 1-140) (natural protein)” as the substance, how does the Kd [2] read?
**A.** The Kd was 386 nM.
